{
  "source": "patent US20190225676A1",
  "about": "(Hoffmann-La Roche, published 2019)",
  "key": {"[1]": {"molecular_target": "T1, porcine Collagen type II (USBiological C7510-31) (porcine)", "T1 construct": "Bought material, immobilised by amine coupling on the sensor chip; also called porcine collagen II", "test": "SPR (BIAcore T200), collagen II amine-coupled on chip, construct injected 1.23-900 nM, 25 C, 1:1 Langmuir fit", "method": "(§1) Binding kinetics of anti-collagen antibodies to human Collage type II (Millipore CC052) and porcine Collagen type II (USBiological C7510-31) was investigated by surface plasmon resonance using a BIAcore T200 instrument (GE Healthcare). All experiments were performed at 25° C. using HBS-P (10 mM […], 140 mM NaCl, 0.05% Tween 20 pH 7.4) as running and dilution buffer. Collagen type II was immobilized on a Series S CMS Sensor Chip (GE Healthcare) using standard amine coupling chemistry. Anti-Collagen antibodies were injected for 180 s with concentrations from 1.23 up to 900 nM (1:3 dilution series) onto the surface (association phase). The dissociation phase was monitored for 600 sec by washing with running buffer. The surface was regenerated by injecting 0.85% H₃PO₄ for 60 sec. Bulk refractive index differences were corrected by subtracting the response obtained from a mock surface. Blank injections were subtracted (double referencing). The derived curves were fitted to a 1:1 Langmuir binding model using the BIAevaluation software."}, "[2]": {"molecular_target": "T2, human Collagen type II (Millipore CC052) (human, UniProt P02458 182-1241, limits assumed)", "T2 construct": "Bought material, immobilised by amine coupling on the sensor chip; also called human collagen II", "T2 sequence (P02458 182-1241 limits assumed)": "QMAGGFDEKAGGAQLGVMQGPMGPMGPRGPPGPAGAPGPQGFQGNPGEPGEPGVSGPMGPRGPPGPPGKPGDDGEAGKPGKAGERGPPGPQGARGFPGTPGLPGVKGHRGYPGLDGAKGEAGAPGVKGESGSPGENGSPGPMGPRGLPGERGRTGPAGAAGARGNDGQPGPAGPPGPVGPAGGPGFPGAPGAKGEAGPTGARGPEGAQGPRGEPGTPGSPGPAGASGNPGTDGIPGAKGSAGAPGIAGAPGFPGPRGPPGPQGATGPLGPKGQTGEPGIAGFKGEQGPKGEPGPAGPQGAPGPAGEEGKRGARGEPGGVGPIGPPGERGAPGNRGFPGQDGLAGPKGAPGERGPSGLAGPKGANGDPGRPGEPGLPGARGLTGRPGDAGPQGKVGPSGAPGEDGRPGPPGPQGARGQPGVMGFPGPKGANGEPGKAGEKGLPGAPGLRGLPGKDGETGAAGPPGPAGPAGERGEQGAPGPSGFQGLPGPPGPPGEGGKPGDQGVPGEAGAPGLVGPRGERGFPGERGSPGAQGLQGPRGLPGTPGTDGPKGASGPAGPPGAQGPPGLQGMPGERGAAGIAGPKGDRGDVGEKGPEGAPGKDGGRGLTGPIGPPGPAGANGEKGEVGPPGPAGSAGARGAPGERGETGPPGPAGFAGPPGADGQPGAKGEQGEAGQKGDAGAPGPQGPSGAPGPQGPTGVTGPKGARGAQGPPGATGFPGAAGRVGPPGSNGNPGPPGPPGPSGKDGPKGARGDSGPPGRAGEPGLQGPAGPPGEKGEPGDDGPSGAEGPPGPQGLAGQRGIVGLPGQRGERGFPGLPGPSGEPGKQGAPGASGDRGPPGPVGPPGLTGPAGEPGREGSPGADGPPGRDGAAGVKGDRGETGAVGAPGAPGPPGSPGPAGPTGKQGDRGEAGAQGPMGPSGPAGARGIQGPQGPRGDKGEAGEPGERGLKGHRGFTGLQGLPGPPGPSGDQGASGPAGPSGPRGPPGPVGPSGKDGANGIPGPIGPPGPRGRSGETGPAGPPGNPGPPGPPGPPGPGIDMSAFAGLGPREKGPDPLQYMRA", "test": "SPR (BIAcore T200), collagen II amine-coupled on chip, construct injected 1.23-900 nM, 25 C, 1:1 Langmuir fit", "method": "as §1"}, "[3]": {"molecular_target": "collagen (ECM compound added to PBS in the FCS diffusion test solution)", "test": "cell-based or functional assay"}},
  "data": [
    {"binder": "FAB-COLL-II: anti-digoxigenin antibody Fab conjugated to anti-collagen II antibody scFv II (bispecific antibody, Fab-scFv fusion; also called FAB-COLL-II (8 nM)) heavy: QVQLVESGGGLVKPGGSLRLSCAASGFTFSDYAMSWIRQAPGKGLEWVSSINIGATYIYYADSVKGRFTISRDNAKNSLYLQMNSLRAEDTAVYYCARPGSPYEYDKAYYSMAYWGQGTTVTVSSASTKGPSVFPLAPSSKSTSGGTAALGCLVKDYFPEPVTVSWNSGALTSGVHTFPAVLQSSGLYSLSSVVTVPSSSLGTQTYICNVNHKPSNTKVDKKVEPKSCGGGGSGGGGSEIVLTQSPATLSLSPGERATLSCRASQSVDDWLAWYQQKPGQAPRLLIYDASNRATGIPARFSGSGSGTDFTLTISSLEPEDFAVYYCQQGDTAPITFGQGTKVEIKGGGGSGGGGSGGGGSGGGGSQVQLVQSGAEVKKPGSSVKVSCKASGGTFSSYAISWVRQAPGQGLEWMGGIIPIFGTANYAQKFQGRVTITADESTSTAYMELSSLRSEDTAVYYCARNIVGDYLLDYWGQGTLVTVSS light: not shown", "values": [
      {"measurement": "Kd", "setting": "[1]", "value": 50, "unit": "nM"},
      {"measurement": "Kd", "setting": "[2]", "value": 15, "unit": "nM"},
      {"measurement": "diffusion rate FCS (increase in PBS comprising ECM compound at equimolar concentration compared to PBS alone)", "setting": "[3]", "value": 260, "unit": "%"}
    ]},
    {"binder": "FAB-COLL-I: anti-digoxigenin antibody Fab conjugated to anti-collagen II antibody scFv I (bispecific antibody, Fab-scFv fusion; also called FAB-COLL-I (2 nM)) heavy: QVQLVESGGGLVKPGGSLRLSCAASGFTFSDYAMSWIRQAPGKGLEWVSSINIGATYIYYADSVKGRFTISRDNAKNSLYLQMNSLRAEDTAVYYCARPGSPYEYDKAYYSMAYWGQGTTVTVSSASTKGPSVFPLAPSSKSTSGGTAALGCLVKDYFPEPVTVSWNSGALTSGVHTFPAVLQSSGLYSLSSVVTVPSSSLGTQTYICNVNHKPSNTKVDKKVEPKSCGGGGSGGGGSEIVLTQSPATLSLSPGERATLSCRASQSVRDFLAWYQQKPGQAPRLLIYGASNRATGIPARFSGSGSGTDFTLTISSLEPEDFAVYYCQQRGSAPLTFGQGTKVEIKGGGGSGGGGSGGGGSGGGGSQVQLVQSGAEVKKPGSSVKVSCKASGGTFSSYAISWVRQAPGQGLEWMGGIIPIFGTANYAQKFQGRVTITADESTSTAYMELSSLRSEDTAVYYCARDPNGNIVLSEYFDYWGQGTLVTVSS light: not shown", "values": [
      {"measurement": "Kd", "setting": "[1]", "value": 56, "unit": "nM"},
      {"measurement": "Kd", "setting": "[2]", "value": 30, "unit": "nM"},
      {"measurement": "diffusion rate FCS (increase in PBS comprising ECM compound at equimolar concentration compared to PBS alone)", "setting": "[3]", "value": 180, "unit": "%"}
    ]},
    {"binder": "FAB-COLL-III: anti-digoxigenin antibody Fab conjugated to anti-collagen II antibody scFv III (bispecific antibody, Fab-scFv fusion; also called FAB-COLL-III (8 nM)) heavy: QVQLVESGGGLVKPGGSLRLSCAASGFTFSDYAMSWIRQAPGKGLEWVSSINIGATYIYYADSVKGRFTISRDNAKNSLYLQMNSLRAEDTAVYYCARPGSPYEYDKAYYSMAYWGQGTTVTVSSASTKGPSVFPLAPSSKSTSGGTAALGCLVKDYFPEPVTVSWNSGALTSGVHTFPAVLQSSGLYSLSSVVTVPSSSLGTQTYICNVNHKPSNTKVDKKVEPKSCGGGGSGGGGSEIVLTQSPATLSLSPGERATLSCRASQSVADWLAWYQQKPGQAPRLLIYDASNRATGIPARFSGSGSGTDFTLTISSLEPEDFAVYYCQQYDGWPITFGQGTKVEIKGGGGSGGGGSGGGGSGGGGSQVQLVQSGAEVKKPGSSVKVSCKASGGTFSSYAISWVRQAPGQGLEWMGGIIPIFGTANYAQKFQGRVTITADESTSTAYMELSSLRSEDTAVYYCARHLYYMLDYWGQGTLVTVSS light: not shown", "values": [
      {"measurement": "Kd", "setting": "[1]", "value": 342, "unit": "nM"},
      {"measurement": "Kd", "setting": "[2]", "value": 180, "unit": "nM"},
      {"measurement": "diffusion rate FCS (increase in PBS comprising ECM compound at equimolar concentration compared to PBS alone)", "setting": "[3]", "value": 40, "unit": "%"}
    ]}
  ]
}
